{"source": "patent US10344330B2", "about": "“Glatiramer acetate response biomarker mRNA potency assay” (Mylan Inc., priority 2013, dated 2019)", "molecules": {"B1": {"name": "MBP: myelin basic protein, a negative control (protein, UniProt P02686 1-304, looked up)", "Myelin basic protein": "MGNHAGKRELNAEKASTNSETNRGESEKKRNLGELSRTTSEDNEVFGEADANQNNGTSSQDTAVTDSKRTADPKNAWQDAHPADPGSRPHLIRLFSRDAPGREDNTFKDRPSESDELQTIQEDSAATSESLDVMASQKRPSQRHGSKYLATASTMDHARHGFLPRHRDTGILDSIGRFFGGDRGAPKRGSGKDSHHPARTAHYGSLPQKSHGRTQDENPVVHFFKNIVTPRTPPPSQGKGRGLSLSRFSWGAEGQRPGFGYGGRASDYKSAHKGFKGVDAQGTLSKIFKLGGRDSRSGSPMARR"}}, "type_in_all_cases": "cell-based, mouse", "key": {"[1]": {"tested_on": "IL-12 (total) secreted by LN cells", "assay": "IL-12 (total) secretion by GA-stimulated LN cells, MSD 9-plex ELISA (Example II)", "conditions": "21 hr", "description": "(§1) Animals at 8 weeks of age were immunized by injection into four footpads using a 1 mL syringe with a 27-G, 1⁄2-inch needle. […] Ten days post-immunization, immunized animals were sacrificed via cervical dislocation. […] The LN cells were isolated by pressing the LN with the plunger end of a sterile syringe. […] Trypan blue exclusion method was used to determine the cell density of viable cells in the suspension. […] Cat. […] LN cells were plated into a 24-well tissue culture plate for drug stimulation. […] Cell debris was removed by centrifugation at ca. 200×g for 10 minutes at 4° C. Cytokines secreted by treated cells were determined on the day of collection by ELISA using mouse TH 1/TH 2 9-Plex Tissue Culture Kit (Meso Scale Discovery; Cat No. […]-2, Lot #: K0032839) which detects Th1 cytokines (IFN-γ, IL-2, IL-12, IL-1β, TNF-α, CXCL1) and Th2 cytokines (IL-4, IL-5 and IL-10). For IFN-γ, culture media also were assayed at 45 hours using mouse IFN-γ Tissue Culture Kit (Meso Scale Discovery; Cat No. […] For the positive control, 0.5 mL of LN cells (5×10^6 cells/well) were treated with 0.5 mL of ConA (5 μg/mL). For the negative control, 0.5 mL of LN cells (5×10^6 cells/well) were treated with 0.5 mL of MBP (20 μg/mL). The LN cells with mock stimulation (enriched DCCM1 medium) were used to monitor the background level of a cytokine. For the cytokine assays, calibration standards or samples were incubated in the MULTI-SPOT or the SINGLE-SPOT plate and each cytokine bound to its corresponding capture antibody. All test samples were run in duplicate. The amount of each cytokine on its distinct spot was quantified using a cytokine-specific detection antibody labeled with MSD SULFO-TAGTM reagent. Electrochemiluminescent signals from immobilized SULFO-TAGTM-labeled complexes on each spot from each well were captured by the MSD SECTOR Imager 6000, which produces a signal directly proportional to the amount of captured cytokine in a test sample. The levels of cytokines in test samples were derived by interpolation from calibration curves with calibration standards of known concentrations using reagents provided with the MSD kits. Kits were used according to the manufacturer's protocols. […] Data are expressed as a response ratio of cytokine concentration in treated cell medium to control DCCM1 medium."}, "[2]": {"tested_on": "TNF-α secreted by LN cells", "assay": "TNF-α secretion by GA-stimulated LN cells, MSD 9-plex ELISA (Example II)", "conditions": "21 hr", "description": "as §1"}, "[3]": {"tested_on": "IFN-γ secreted by LN cells", "assay": "IFN-γ secretion by GA-stimulated LN cells, MSD ELISA, 21 and 45 hr (Example II)"}, "IFN-γ mRNA in LN cells": {"tested_on": "IFN-γ mRNA in LN cells", "assay": "IFN-γ mRNA by real-time PCR in LN cells of GA-immunized CD-1, BALB/cByJ, SJL/J mice (Example III)", "conditions": "stimulation 10 μg/mL, 6 hours", "description": "On Day 0, mice were immunized with 250 μg GA (GMA, Mylan Pharmaceuticals, Inc.) and CFA. The GA solution (20 mg/mL) was diluted with Dulbecco's Phosphate-Buffered Saline to 5 mg/mL. The dosing formulation consisted of equal volumes of the diluted GA solution (5 mg/mL) and CFA solution, mixed until well-emulsified. Animals were weighed and allocated to groups. Animals were dosed by injection into four footpads. The injection volume per animal was 0.1 mL (about 10 μL into each front footpad, and 40 μL into each hind footpad).\nImmunized animals were euthanized by cervical dislocation on Day 10 post-immunization. Lymph node cells were isolated from animals and treated with Myelin Basic Protein (MBP, a negative control), Concanavalin A (ConA, a positive control) or GA as shown in Table 16. Lymph nodes in the axillary and popliteal regions were removed aseptically in a purifier clean bench. […] The LN were then washed 3 times with −5 mL of RPMI medium, and isolated by pressing the LN with a syringe plunger. […] The cell suspension was centrifuged at about 200×g for 10 minutes at about 4° C. and re-suspended in ice cold enriched DCCM-1 medium. Cells were seeded in 96-well tissue culture plates.\nLN cells isolated from GA-immunized animals were stimulated with GA (GMA, Mylan Pharmaceuticals, Inc.) at concentrations as indicated in Tables 16 and 17. A positive control was prepared by treating LN cells with 2.5 μg/mL concavalin A (ConA, a non-specific T cell stimulant). Myelin basic protein (MBP, 10 μg/mL) and enriched DCCM-1 medium served as negative controls. The cells from all groups each were stimulated with the same GA lot. Each reaction was set up in triplicate.\nAfter incubation at about 37° C. in a humidified CO2 incubator for 6 hours, the cells were lysed for total RNA isolation. Total RNA was isolated from treated LN cells using SV 96 Total RNA Isolation System according to the manufacturer's protocol (Promega, Cat. #Z3500). Cells were washed once with Phosphate Buffered Saline (PBS) and lysed in RNA lysis buffer. The lysate was transferred to wells of the SV 96 binding plate. Samples were washed with RNA wash solution and treated with DNase. Total RNA was eluted with nuclease-free water from the binding plate.\nAfter the reverse transcriptase reaction was completed, cDNA samples were used directly for real-time PCR to measure the response biomarker mRNA levels produced by the stimulated cells. […] All probes for target genes contained FAM dye, and probes for the internal control contained VIC®/MGB dye. Samples will be prepared and run in 96-well plates using a Real-Time PCR system (7500, Life Technologies). This system allows direct detection of PCR-product formation by measuring the increase in fluorescent emission continuously during the PCR reaction. A relative quantitation method was used to analyze changes in mouse IL-2, IL-4, IL-5, IL-10, IL-13, IFN-γ and TNF-α expression in GA-treated samples relative to the untreated control (enriched DCCM-1 treated) samples. The Real-Time PCR program was:\nThe levels of mouse cytokine amplicons (IL-2, IL-4, IL-5, IL-10, IL-13, mIFN-γ and TNF-α) were normalized to internal probe levels (GAPDH) from the same samples. The following equations were used to calculate the relative increase in response to GA stimulation compared to the control sample: ΔCT=CT_target−CT_reference ΔΔCT=−ΔCT_Treated−CT_VC"}, "[4]": {"conditions": "BALB/cByJ, immunized GA Intraplantar"}, "[5]": {"conditions": "BALB/cByJ, immunized GA Lower Limb"}, "[6]": {"conditions": "BALB/cByJ, immunized Mannitol Intraplantar"}, "[7]": {"conditions": "C57BL10J, immunized GA Intraplantar"}, "[8]": {"conditions": "C57BL10J, immunized GA Lower Limb"}, "[9]": {"conditions": "C57BL10J, immunized Mannitol Intraplantar"}, "[10]": {"conditions": "CD-1, immunized GA Intraplantar"}, "[11]": {"conditions": "CD-1, immunized Mannitol Intraplantar"}}, "data": [{"molecule": "B1", "values": [{"measurement": "IL-12 (total) secretion response ratio (treated cell medium to control DCCM1 medium)", "setting": "[1]; [4]", "value": 1.09}, {"measurement": "IL-12 (total) secretion response ratio (treated cell medium to control DCCM1 medium)", "setting": "[1]; [5]", "value": 1.04}, {"measurement": "IL-12 (total) secretion response ratio (treated cell medium to control DCCM1 medium)", "setting": "[1]; [6]", "value": 1.05}, {"measurement": "IL-12 (total) secretion response ratio (treated cell medium to control DCCM1 medium)", "setting": "[1]; [7]", "value": 1.18}, {"measurement": "IL-12 (total) secretion response ratio (treated cell medium to control DCCM1 medium)", "setting": "[1]; [8]", "value": 1.19}, {"measurement": "IL-12 (total) secretion response ratio (treated cell medium to control DCCM1 medium)", "setting": "[1]; [9]", "value": 1.13}, {"measurement": "IL-12 (total) secretion response ratio (treated cell medium to control DCCM1 medium)", "setting": "[1]; [10]", "value": 1.22}, {"measurement": "IL-12 (total) secretion response ratio (treated cell medium to control DCCM1 medium)", "setting": "[1]; CD-1, immunized GA Lower Limb", "value": 1.18}, {"measurement": "IL-12 (total) secretion response ratio (treated cell medium to control DCCM1 medium)", "setting": "[1]; [11]", "value": 0.99}, {"measurement": "TNF-α secretion response ratio (treated cell medium to control DCCM1 medium)", "setting": "[2]; [4]", "value": 0.98}, {"measurement": "TNF-α secretion response ratio (treated cell medium to control DCCM1 medium)", "setting": "[2]; [5]", "value": 1.07}, {"measurement": "TNF-α secretion response ratio (treated cell medium to control DCCM1 medium)", "setting": "[2]; [6]", "value": 1.10}, {"measurement": "TNF-α secretion response ratio (treated cell medium to control DCCM1 medium)", "setting": "[2]; [7]", "value": 1.03}, {"measurement": "TNF-α secretion response ratio (treated cell medium to control DCCM1 medium)", "setting": "[2]; [8]", "value": 1.04}, {"measurement": "TNF-α secretion response ratio (treated cell medium to control DCCM1 medium)", "setting": "[2]; [9]", "value": 1.01}, {"measurement": "TNF-α secretion response ratio (treated cell medium to control DCCM1 medium)", "setting": "[2]; [10]", "value": 1.34}, {"measurement": "TNF-α secretion response ratio (treated cell medium to control DCCM1 medium)", "setting": "[2]; CD-1, immunized GA Lower Limb", "value": 1.54}, {"measurement": "TNF-α secretion response ratio (treated cell medium to control DCCM1 medium)", "setting": "[2]; [11]", "value": 1.51}, {"measurement": "IFN-γ secretion response ratio (treated cell medium to control DCCM1 medium)", "setting": "[3]; BALB/cByJ, immunized GA Intraplantar, 21 hr", "value": 0.87}, {"measurement": "IFN-γ secretion response ratio (treated cell medium to control DCCM1 medium)", "setting": "[3]; BALB/cByJ, immunized GA Intraplantar, 45 hr", "value": 0.83}, {"measurement": "IFN-γ secretion response ratio (treated cell medium to control DCCM1 medium)", "setting": "[3]; BALB/cByJ, immunized GA Lower Limb, 21 hr", "value": 0.80}, {"measurement": "IFN-γ secretion response ratio (treated cell medium to control DCCM1 medium)", "setting": "[3]; BALB/cByJ, immunized GA Lower Limb, 45 hr", "value": 0.92}, {"measurement": "IFN-γ secretion response ratio (treated cell medium to control DCCM1 medium)", "setting": "[3]; BALB/cByJ, immunized Mannitol Intraplantar, 21 hr", "value": 1.17}, {"measurement": "IFN-γ secretion response ratio (treated cell medium to control DCCM1 medium)", "setting": "[3]; BALB/cByJ, immunized Mannitol Intraplantar, 45 hr", "value": 0.92}, {"measurement": "IFN-γ secretion response ratio (treated cell medium to control DCCM1 medium)", "setting": "[3]; C57BL10J, immunized GA Intraplantar, 21 hr", "value": 1.03}, {"measurement": "IFN-γ secretion response ratio (treated cell medium to control DCCM1 medium)", "setting": "[3]; C57BL10J, immunized GA Intraplantar, 45 hr", "value": 1.07}, {"measurement": "IFN-γ secretion response ratio (treated cell medium to control DCCM1 medium)", "setting": "[3]; C57BL10J, immunized GA Lower Limb, 21 hr", "value": 1.60}, {"measurement": "IFN-γ secretion response ratio (treated cell medium to control DCCM1 medium)", "setting": "[3]; C57BL10J, immunized GA Lower Limb, 45 hr", "value": 1.80}, {"measurement": "IFN-γ secretion response ratio (treated cell medium to control DCCM1 medium)", "setting": "[3]; C57BL10J, immunized Mannitol Intraplantar, 21 hr", "value": 2.02}, {"measurement": "IFN-γ secretion response ratio (treated cell medium to control DCCM1 medium)", "setting": "[3]; C57BL10J, immunized Mannitol Intraplantar, 45 hr", "value": 1.41}, {"measurement": "IFN-γ secretion response ratio (treated cell medium to control DCCM1 medium)", "setting": "[3]; CD-1, immunized GA Intraplantar, 21 hr", "value": 1.06}, {"measurement": "IFN-γ secretion response ratio (treated cell medium to control DCCM1 medium)", "setting": "[3]; CD-1, immunized GA Intraplantar, 45 hr", "value": 0.89}, {"measurement": "IFN-γ secretion response ratio (treated cell medium to control DCCM1 medium)", "setting": "[3]; CD-1, immunized GA Lower Limb, 21 hr", "value": 0.90}, {"measurement": "IFN-γ secretion response ratio (treated cell medium to control DCCM1 medium)", "setting": "[3]; CD-1, immunized GA Lower Limb, 45 hr", "value": 2.11}, {"measurement": "IFN-γ secretion response ratio (treated cell medium to control DCCM1 medium)", "setting": "[3]; CD-1, immunized Mannitol Intraplantar, 21 hr", "value": 1.57}, {"measurement": "IFN-γ secretion response ratio (treated cell medium to control DCCM1 medium)", "setting": "[3]; CD-1, immunized Mannitol Intraplantar, 45 hr", "value": 7.22}, {"measurement": "IFN-γ mRNA Expression", "setting": "IFN-γ mRNA in LN cells; Group 1C: CD-1, GA-immunized", "value": 0.8, "unit": "fold change vs control"}, {"measurement": "IFN-γ mRNA Expression", "setting": "IFN-γ mRNA in LN cells; Group 2C: BALB/cByJ, GA-immunized", "value": 0.2, "unit": "fold change vs control"}, {"measurement": "IFN-γ mRNA Expression", "setting": "IFN-γ mRNA in LN cells; Group 3C: SJL/J, GA-immunized", "value": 0.2, "unit": "fold change vs control"}]}]}
